The values below are quoted from earlier work in paper PMC2854688.

Broadly, the Kd is a measure of binding affinity in units of concentration.

The target in series [1] is eRF3 PAM2 peptide PAM2 (Homo sapiens) (UniProt P15170).
Series [2] deals with eRF3 overlapping PAM2 peptide PAM2 (Homo sapiens) (UniProt P15170).

Where “and” joins values, the source holds several entries; their conditions need not be identical. Equal values may be shown once.

For the substance “PABPC1 MLLE domain MLLE (from UniProt P11940)”, the Kd is 3.9 µM and 3.1 µM in series [1]; 1.3 µM in series [2].
